{
  "source": "patent US20080153749",
  "proteins": {"B1": {"name": "KAP (wild-type, full-length KAP protein) (protein)", "chain": "MKPPSSIQTSEFDSSDEEPIEDEQTPIHISWLSLSRVNCSQFLGLCALPGCKFKDVRRNVQKDTEELKSCGIQDIFVFCTRGELSKYRVPNLLDLYQQCGIITHHHPIADGGTPDIASCCEIMEELTTCLKNYRKTLIHCYGGLGRSCLVAACLLLYLSDTISPEQAIDSLRDLRGSGAIQTIKQYNYLHEFRDKLAAHLSSRDSQSRSVSR"}},
  "key": {"[1]": {"target": "cdk2.cyclin A complex (recombinant, Upstate), P24941"}, "[2]": {"target": "T1, full-length HTm4 protein (human, recombinant, His tag cleaved with Factor Xa)", "T1 chain": "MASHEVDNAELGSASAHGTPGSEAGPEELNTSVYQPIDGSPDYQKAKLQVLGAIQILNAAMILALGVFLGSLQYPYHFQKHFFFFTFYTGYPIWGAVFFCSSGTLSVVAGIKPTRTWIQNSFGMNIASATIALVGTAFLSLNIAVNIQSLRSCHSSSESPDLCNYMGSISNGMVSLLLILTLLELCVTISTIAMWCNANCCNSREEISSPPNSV"}},
  "data": [
    {"protein": "B1", "values": [
      {"measurement": "Km of KAP phosphatase activity in the absence of HTm4 (substrate active cdk2.cyclin A)", "setting": "[1]", "value": "Vmax and Km for the samples in the presence and absence of HTm4 are 17.5, 1.30 nM/min, and 8.33, 2.68 µM, respectively"},
      {"measurement": "Vmax of KAP phosphatase activity in the absence of HTm4 (substrate active cdk2.cyclin A)", "setting": "[1]", "value": "Vmax and Km for the samples in the presence and absence of HTm4 are 17.5, 1.30 nM/min, and 8.33, 2.68 µM, respectively"},
      {"measurement": "Km of KAP phosphatase activity in the presence of HTm4", "setting": "[2]", "value": "A parallel increase in Km (to 8.33 µM) was also observed"},
      {"measurement": "Vmax of KAP phosphatase activity in the presence of HTm4", "setting": "[2]", "value": "the Vmax of KAP phosphatase activity increased dramatically to 17.5 nM/min"},
      {"measurement": "dephosphorylating activity of KAP toward phosphorylated cdk2", "setting": "[2]", "value": "HTm4 increases the dephosphorylating activity of KAP toward phosphorylated cdk2 by more than 6-fold"}
    ]}
  ]
}
